Experimental findings from US20100209424A1 are described below.

Test [1] has as its target human FcRn (GFP-hFcRn construct lacking the endosomal targeting domain, expressed on the plasma membrane of human 293 cells) (human) (UniProt P55899). In words: flow cytometry competition against hIgG-Alexa Fluor 647 (40 µg/ml) on 293 cells expressing GFP-hFcRn, pH 5.8.
The target is the same in test [2]. Briefly: flow cytometry competition against hIgG-Alexa Fluor 647 on 293 cells expressing GFP-hFcRn, pH 5.8.

Chain of UniProt P55899 (P55899 24-321): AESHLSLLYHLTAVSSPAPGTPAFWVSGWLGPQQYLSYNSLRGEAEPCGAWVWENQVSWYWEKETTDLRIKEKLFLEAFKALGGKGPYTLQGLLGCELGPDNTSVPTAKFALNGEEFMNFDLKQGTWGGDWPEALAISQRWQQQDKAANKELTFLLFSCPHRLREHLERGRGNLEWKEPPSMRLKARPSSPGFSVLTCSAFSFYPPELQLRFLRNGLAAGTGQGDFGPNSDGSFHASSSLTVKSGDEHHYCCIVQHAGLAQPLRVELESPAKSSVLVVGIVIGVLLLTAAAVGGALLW

In the case of “human immunoglobulin G (hIgG), unconjugated (antibody)”, the IC50 in test [1] is 11.4 µM. This counts as double-digit micromolar. With “biotinylated human immunoglobulin G (hIgG-biotin) (antibody)”, the fold decrease of IC50 against unconjugated hIgG in test [2] is 2 fold. This substance had an IC50 in test [1] of 5.4 µM.
